Experiments:
[1] = Capillary zone electrophoresis; assay type: physicochemical; conditions: running buffer pH 5.5; compared with Hu2B5.2, Hu2B5.4, Hu2B5.6, Hu2B5.8
Excerpt: Capillary zone electrophoresis is a capillary electrophoresis method in which the capillary is filled with buffer and the separation mechanism is based on differences in electrophoretic mobility of the analyte through the buffer. The electrophoretic mobility of a molecule is related to the charge-to-size ratio. A Beckman-Coulter ProteomeLab PA 800 (Beckman Coulter, Fullerton, Calif.) was used for the CZE analysis. A neutral capillary (eCAP neutral, 56 cm total length, 50 μm I. D. Beckman-Coulter, P/N 477441, Fullerton, Calif.) was used. The method used a 30.2 cm capillary with a detection window 20.2 cm from the sample introduction inlet. The running buffer was 100 mM EACA (6-Aminocaproic acid, Sigma A7824-100 G, St. Louis, Mo.) with 0.1% MC (from 1% Methylcellulose solution, Convergent Bioscience, cat# 101876, Toronto, ON, Canada), pH 5.5.

[2] = Biotin-PGE2 ELISA (PGE2-biotinamide binding to captured IgG)
[3] = system: PGE2 induced Ca++ influx in HEK293 Gα16 cells stably transfected with human EP4 receptor; experiment: EP4 bioassay: PGE2 induced Ca++ flux (FLIPR); assay type: cell-based; conditions: PGE2 25 pm; read-out: IC50 (pM) @ PGE2 25 pm Cellular Potency in EP4 assay
Protocol: The ability of anti-PGE2 antibody to inhibit cellular response of PGE2 in vitro was determined in a Ca^++ flux assay in HEK293 Gα16 cells (Abbott Bioresearch Center, Worcester, Mass.) stably transfected with human EP4 receptor. In brief, an expression plasmid encoding one of the four human PGE2 receptors, EP4, and an expression plasmid encoding Gα16, were co-transfected into human embryonic kidney cell line 293 cells (ATCC# CRL1573, Manassas, Va.). The stable clones co-expressing both human EP4 and Gα16 protein were selected using standard methods (Joseph Sambrook and David W. Russell. Molecular Cloning: A Laboratory Manual Publisher. Published by Cold Spring Harbor Laboratory Press, 2001) and used for the EP4 bioassay. The HEK293 Gα16 cells were plated in black/clear poly-D-lysine plates (Corning #3667, Corning, N.Y.) and incubated with a Ca^++-sensitive dye (Molecular Devices, Sunnyvale, Calif.) for 90 minutes. Stock PGE2 (in 200 proof ethanol) was diluted with FLIPR buffer [containing 1×HBSS (Invitrogen Carlsbad, Calif.), 20 mM HEPES (Invitrogen Carlsbad, Calif.), 0.1% BSA (Sigma, St. Louis, Mo.) and 2.5 mM Probenecid (Sigma, St. Louis, Mo.)]. Anti-PGE2 antibodies or isotype matched control antibodies were also pre-diluted in FLIPR buffer. 25 μl of PGE2 or pre-incubated PGE2/antibody mixture was added to the wells pre-plated with cells. The dose response of PGE2 was determined on a serial titration of PGE2 and using FLIPR1 or Tetra (Molecular Devices, Sunnyvale, Calif.) and EC50 was determined using GraphPad Prism 5 (GraphPad Software, La Jolla, Calif.). […] Ca^++ flux was monitored using FLIPR1 and data was analyzed using GraphPad Prism 5 (GraphPad Software, La Jolla, Calif.).

B1: Hu2B5.5: humanized 2B5-8.0; VH SEQ ID NO 68, VL SEQ ID NO 69 (antibody, V domains shown)
VH: EVQLVQSGAEVKKPGASVKVSCKASGYTFTKYWLGWVRQAPGQGLEWMGDIYPGYDYTHYNEKFKDRVTLTTDTSTSTAYMELRSLRSDDTAVYYCARSDGSSTYWGQGTLVTVSS
VL: DVVMTQTPLSLPVTPGEPASISCTSSQNIVHSNGNTYLEWYLQKPGQSPQLLIYKVSNRFSGVPDRFSGSGSGTDFTLKISRVEAEDVGVYYCFQVSHVPYTFGGGTKVEIKR
- migration in capillary zone electrophoresis [1]: migrated more basic
- EC50 [2]: 37 pM
- IC50 [3]: 47 pM

Reference: patent publication US8624002B2, “Prostaglandin E2 binding proteins and uses thereof” (AbbVie, Inc., priority 2008, dated 2014)
